This is an account of results in paper PMC11568366.

The assay concerns the target SET/template-activating factor Iβ (SET/TAF-Iβ), recombinant (UniProt Q01105). As to the kind of experiment: ITC; 300 μM reduced Cc injected (17 x 2.91 μL) into 30 μM SET/TAF-Iβ (as homodimer) in the cell, 25°C, 10 mM sodium phosphate pH 7.4; WT fitted with two cooperative binding sites, mutants with independent binding sites.

On to “Y48pCMF cytochrome c phosphomimetic mutant (reduced) (from UniProt P99999 2-105) (natural protein)”, for which the equilibrium dissociation constant (Kd) amounted to 23 µM, the dH was -4.6 kcal/mol and the stoichiometry N amounted to 2.2.
